# Experimental data reported in IntAct's records for PubMed 21642953.
# What was measured:
# dcc_human DCC = dcc_human DCC (UniProt P43146)
# tbb2b_human TUBB2B = tbb2b_human TUBB2B (UniProt Q9BVA1)
# Sequence of tbb2b_human TUBB2B (Q9BVA1 whole entry): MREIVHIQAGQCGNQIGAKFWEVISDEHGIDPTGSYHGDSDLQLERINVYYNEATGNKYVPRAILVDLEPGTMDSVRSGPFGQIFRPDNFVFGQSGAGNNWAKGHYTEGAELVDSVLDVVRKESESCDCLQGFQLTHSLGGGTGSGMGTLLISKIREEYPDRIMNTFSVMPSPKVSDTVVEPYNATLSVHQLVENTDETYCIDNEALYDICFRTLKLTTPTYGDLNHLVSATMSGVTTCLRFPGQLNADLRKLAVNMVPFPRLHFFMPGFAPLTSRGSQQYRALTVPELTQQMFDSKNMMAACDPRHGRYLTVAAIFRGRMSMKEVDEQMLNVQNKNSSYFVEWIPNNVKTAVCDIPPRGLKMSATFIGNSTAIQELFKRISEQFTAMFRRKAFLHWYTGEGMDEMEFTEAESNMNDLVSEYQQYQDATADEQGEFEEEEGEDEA
# Sequence of dcc_human DCC (P43146 whole entry): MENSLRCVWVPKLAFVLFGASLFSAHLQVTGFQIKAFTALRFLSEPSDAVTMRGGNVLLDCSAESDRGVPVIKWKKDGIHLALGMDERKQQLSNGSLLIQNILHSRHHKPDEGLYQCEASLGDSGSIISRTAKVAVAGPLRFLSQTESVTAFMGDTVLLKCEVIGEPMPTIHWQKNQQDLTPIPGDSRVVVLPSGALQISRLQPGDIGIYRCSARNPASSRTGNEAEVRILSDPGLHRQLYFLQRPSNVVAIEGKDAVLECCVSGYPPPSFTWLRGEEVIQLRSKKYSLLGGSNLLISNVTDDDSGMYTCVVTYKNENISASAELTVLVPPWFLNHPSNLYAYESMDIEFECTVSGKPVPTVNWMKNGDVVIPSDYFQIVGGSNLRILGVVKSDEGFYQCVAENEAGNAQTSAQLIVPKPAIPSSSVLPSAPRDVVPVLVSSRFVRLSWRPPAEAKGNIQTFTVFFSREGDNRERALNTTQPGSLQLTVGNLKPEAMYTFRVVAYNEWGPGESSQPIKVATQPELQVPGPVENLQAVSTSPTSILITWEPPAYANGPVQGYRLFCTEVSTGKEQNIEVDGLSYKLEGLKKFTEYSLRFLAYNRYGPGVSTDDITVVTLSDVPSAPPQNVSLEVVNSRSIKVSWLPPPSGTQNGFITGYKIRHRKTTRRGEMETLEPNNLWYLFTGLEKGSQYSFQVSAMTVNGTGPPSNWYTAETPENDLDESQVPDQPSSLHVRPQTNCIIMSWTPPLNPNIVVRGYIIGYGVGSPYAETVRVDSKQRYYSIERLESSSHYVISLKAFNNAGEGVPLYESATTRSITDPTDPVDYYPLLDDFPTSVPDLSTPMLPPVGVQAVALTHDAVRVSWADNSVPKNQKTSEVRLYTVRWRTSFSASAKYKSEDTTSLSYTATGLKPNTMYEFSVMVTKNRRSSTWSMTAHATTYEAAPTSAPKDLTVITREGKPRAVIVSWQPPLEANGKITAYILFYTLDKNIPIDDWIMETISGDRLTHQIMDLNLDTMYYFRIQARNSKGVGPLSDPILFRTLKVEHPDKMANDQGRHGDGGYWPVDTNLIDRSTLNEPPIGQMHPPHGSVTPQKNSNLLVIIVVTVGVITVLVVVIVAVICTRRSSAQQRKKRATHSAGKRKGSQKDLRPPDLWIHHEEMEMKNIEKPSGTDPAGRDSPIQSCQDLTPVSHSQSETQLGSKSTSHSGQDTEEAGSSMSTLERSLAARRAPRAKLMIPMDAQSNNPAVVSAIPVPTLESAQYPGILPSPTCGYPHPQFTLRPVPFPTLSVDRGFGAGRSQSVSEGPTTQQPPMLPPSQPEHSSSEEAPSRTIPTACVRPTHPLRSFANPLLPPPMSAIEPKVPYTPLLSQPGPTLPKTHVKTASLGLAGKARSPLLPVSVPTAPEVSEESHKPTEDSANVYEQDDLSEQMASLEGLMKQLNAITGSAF
Substance,effect of a mutation on the interaction (dcc_human DCC),effect of a mutation on the interaction (tbb2b_human TUBB2B)
"Unconventional myosin-X (Homo sapiens), Q9HD67 F2002K",disrupting interaction,–
"Unconventional myosin-X (Homo sapiens), Q9HD67 K1647D",–,disrupting interaction
"Unconventional myosin-X (Homo sapiens), Q9HD67 K1650D",–,disrupting interaction
